# Laboratory results from US11278600B2, “Human alpha-galactosidase variants” (Codexis, Inc., priority 2014, dated 2022).
# Residue numbers refer to the chain shown, from its start.
# B1: 391 (protein)
# chain: LDNGLARTPTMGWLHWERFMCNLDCQEEPDSCISEKLFMEMAERMVSEGWKDAGYEYLCIDDCWMAPQRDSEGRLQADPQRFPHGIRQLANYWHSKGLKLGIYADVGNKTCAGFPGSFGYYDIDAQTFADWGVDLLKFDGCYCDSLENLADGYKHMSLALNRTGRSIVYSCEWPLYMWPFQKPNYTEIRQYCNHWRNFADIDDSWKSIKSILDWTSRNQERIVDVAGPGGWNDPDMLVIGNFGLSWDQQVTQMALWAIMAAPLFMSNDLRHISPQAKALLQDKDVIAINQDPLGKQGYQLRKGDNFEVWERPLSGDAWAVAIINRQEIGGPRSYTIPVASLGKGVACNPACFITQLLPVKRQLGFYNWTSRLKSHINPTGTVLLQLENTMQMSLKDLL
# modifications: Synthetic Polypeptide sequence of Variant No. 391 of mature Human GLA
# B2: 394 (protein)
# chain: B1 chain with W93R
# modifications: Synthetic Polypeptide sequence of Variant No. 394 of mature Human GLA
# B3: 392 (protein)
# chain: B1 chain with W93T
# modifications: Synthetic Polypeptide sequence of Variant No. 392 of mature Human GLA
# B4: 395 (protein)
# chain: B1 chain with Y92H, W93V, K206A
# modifications: Synthetic Polypeptide sequence of Variant No. 395
# B5: 393 (protein)
# chain: B1 chain with W93G
# modifications: Synthetic Polypeptide sequence of Variant No. 393 of mature Human GLA
# B6: 226 (protein)
# chain: LDNGLARTPTMGWLHWERFMCNLDCQEEPDSCISEKLFMEMAELMVSEGWKDAGYEYLCIDDCWMAPQRDSEGRLQADPQRFPHGIRQLANYVHSKGLKLGIYADVGNKTCAGFPGSFGYYDIDAQTFADWGVDLLKFDGCYCDSLENLADGYKHMSLALNRTGRSIVYSCEWPLYMWPFQKPNYTEIRQYCNHWRNFADIDDSWASIKSILDWTSFNQETIVDVAGPGGWNDPDMLVIGNFGLSWNQQVTQMALWAIMAAPLFMSNDLRHISPQAKALLQDKDVIAINQDPLGKQGYQLRQGDNFEVWERPLSGLAWAVAMINRQEIGGPRSYTIAVASLGKGVACNPACFITQLLPVKRKLGLYEWTSRLRSHINPTGTVLLQLENTMQMSKDLLL
# modifications: Synthetic Polypeptide sequence of Variant No. 226 of mature Human GLA
# B7: 229 (protein)
# chain: B6 chain with T221R, L365F, R373K, I376V
# modifications: Synthetic Polypeptide sequence of Variant No. 229 of mature Human GLA
# B8: 193 (protein)
# chain: B6 chain with A206G, T221R, L365F
# modifications: Synthetic Polypeptide sequence of Variant No. 193 of mature Human GLA
# B9: 228 (protein)
# chain: B6 chain with T221R, L365F, R373K
# modifications: Synthetic Polypeptide sequence of Variant No. 228 of mature Human GLA
# B10: 192 (protein)
# chain: B6 chain with A206E, T221R, L365F
# modifications: Synthetic Polypeptide sequence of Variant No. 192 of mature Human GLA
# B11: 230 (protein)
# chain: B6 chain with T221R, L365F, S374R
# modifications: Synthetic Polypeptide sequence of Variant No. 230 of mature Human GLA
# B12: 232 (protein)
# chain: B6 chain with T221R, L365F, T369S
# modifications: Synthetic Polypeptide sequence of Variant No. 232 of mature Human GLA
# B13: 227 (protein)
# chain: B6 chain with T221R, R325H, L365F
# modifications: Synthetic Polypeptide sequence of Variant No. 227 of mature Human GLA
# B14: 231 (protein)
# chain: B6 chain with T221R, L365F, T369D
# modifications: Synthetic Polypeptide sequence of Variant No. 231 of mature Human GLA
# What was measured:
# Format in all cases: biochemical
# [1] = HTP-analysis of supernatants pretreated with base (MUGal hydrolysis); details: for Relative Activity of GLA Variants After Challenge at pH 9.65: activity of the variant/activity of Rd4BB (SEQ ID NO: 15); for Relative Activity of GLA Variants After Challenge at pH 7.6: activity of the variant/activity of Rd2BB (SEQ ID NO: 10), yeast supernatant
# Procedure, shortened: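 Supernatants from INVSc1 yeast expressing GLA variants (SD-Ura, 66-84 h, 30° C) were mixed with McIlvaine buffer pH 7.0-8.2 or 200 mM sodium bicarbonate pH 9.1-9.7 and held 1-18 h at 37° C. Residual activity was then measured on MUGal at pH 4.8/4.3, 37° C, 30-180 min, by fluorescence (Ex 355/Em 448 nm).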
# [2] = HTP-analysis of supernatants pretreated with acid (MUGal hydrolysis); details: for Relative Activity of GLA Variants After Challenge at pH 3.7: activity of the variant/activity of Rd4BB (SEQ ID NO: 15); for Relative Activity of GLA Variants After Challenge at pH 4.2: activity of the variant/activity of Rd2BB (SEQ ID NO: 10), yeast supernatant
# Procedure, shortened: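 MUGal hydrolysis was tracked by fluorescence (Ex 355 nm, Em 448 nm) after a 30-180 min reaction at 37° C. in pH 4.8 McIlvaine/citrate buffer, stopped with 1 M sodium carbonate. Beforehand, yeast (INVSc1) culture supernatants carrying GLA variants were held 1-3 h at 37° C. in acidic McIlvaine buffer, pH 3.3-4.3.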
# [3] = HTP-analysis of yeast culture supernatants, no challenge (MUGal hydrolysis)
# Procedure, shortened: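 GLA variants were expressed in INVSc1 yeast grown in SD-Ura broth with glucose at 30° C., and culture supernatants were collected after 66-84 h. Supernatant was mixed with McIlvaine buffer pH 4.8 and MUGal (2 mM stock) in 50 mM citrate, 200 mM KCl, pH 4.6, incubated at 37° C. for 30-180 minutes, then quenched with sodium carbonate.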
# [4] = activity of the variant/activity of Rd4BB (SEQ ID NO: 15)
# [5] = activity of the variant/activity of Rd2BB (SEQ ID NO: 10), yeast supernatant
Molecule,Relative Activity of GLA Variants After Challenge at pH 9.65 [1],Relative Activity of GLA Variants After Challenge at pH 3.7 [2],"Relative Activity of GLA Variants After No Challenge (NC) [3, 4]",Relative Activity of GLA Variants After Challenge at pH 7.6 [1],Relative Activity of GLA Variants After Challenge at pH 4.2 [2],"Relative Activity of GLA Variants After No Challenge (NC) [3, 5]"
B1,− (<0.5 relative activity over Rd4BB (SEQ ID NO: 15)),+ (0.5 to 1.5 relative activity over Rd4BB (SEQ ID NO: 15)),+ (0.5 to 1.5 relative activity over Rd4BB (SEQ ID NO: 15)),,,
B2,− (<0.5 relative activity over Rd4BB (SEQ ID NO: 15)),+ (0.5 to 1.5 relative activity over Rd4BB (SEQ ID NO: 15)),+ (0.5 to 1.5 relative activity over Rd4BB (SEQ ID NO: 15)),,,
B3,− (<0.5 relative activity over Rd4BB (SEQ ID NO: 15)),+ (0.5 to 1.5 relative activity over Rd4BB (SEQ ID NO: 15)),+ (0.5 to 1.5 relative activity over Rd4BB (SEQ ID NO: 15)),,,
B4,+ (0.5 to 1.5 relative activity over Rd4BB (SEQ ID NO: 15)),+ (0.5 to 1.5 relative activity over Rd4BB (SEQ ID NO: 15)),+ (0.5 to 1.5 relative activity over Rd4BB (SEQ ID NO: 15)),,,
B5,− (<0.5 relative activity over Rd4BB (SEQ ID NO: 15)),− (<0.5 relative activity over Rd4BB (SEQ ID NO: 15)),+ (0.5 to 1.5 relative activity over Rd4BB (SEQ ID NO: 15)),,,
B6,,,,++ (++ = 1.5 to 2.5 relative activity over Rd2BB (SEQ ID NO: 10)),+ (+ = 0.5 to 1.5 relative activity over Rd2BB (SEQ ID NO: 10)),+ (+ = 0.5 to 1.5 relative activity over Rd2BB (SEQ ID NO: 10))
B7,,,,+ (+ = 0.5 to 1.5 relative activity over Rd2BB (SEQ ID NO: 10)),− (− = <0.5 relative activity over Rd2BB (SEQ ID NO: 10)),+ (+ = 0.5 to 1.5 relative activity over Rd2BB (SEQ ID NO: 10))
B8,,,,+ (+ = 0.5 to 1.5 relative activity over Rd2BB (SEQ ID NO: 10)),+ (+ = 0.5 to 1.5 relative activity over Rd2BB (SEQ ID NO: 10)),+ (+ = 0.5 to 1.5 relative activity over Rd2BB (SEQ ID NO: 10))
B9,,,,+ (+ = 0.5 to 1.5 relative activity over Rd2BB (SEQ ID NO: 10)),+ (+ = 0.5 to 1.5 relative activity over Rd2BB (SEQ ID NO: 10)),+ (+ = 0.5 to 1.5 relative activity over Rd2BB (SEQ ID NO: 10))
B10,,,,+ (+ = 0.5 to 1.5 relative activity over Rd2BB (SEQ ID NO: 10)),+ (+ = 0.5 to 1.5 relative activity over Rd2BB (SEQ ID NO: 10)),+ (+ = 0.5 to 1.5 relative activity over Rd2BB (SEQ ID NO: 10))
B11,,,,+ (+ = 0.5 to 1.5 relative activity over Rd2BB (SEQ ID NO: 10)),− (− = <0.5 relative activity over Rd2BB (SEQ ID NO: 10)),+ (+ = 0.5 to 1.5 relative activity over Rd2BB (SEQ ID NO: 10))
B12,,,,++ (++ = 1.5 to 2.5 relative activity over Rd2BB (SEQ ID NO: 10)),++ (++ = 1.5 to 2.5 relative activity over Rd2BB (SEQ ID NO: 10)),++ (++ = 1.5 to 2.5 relative activity over Rd2BB (SEQ ID NO: 10))
B13,,,,− (− = <0.5 relative activity over Rd2BB (SEQ ID NO: 10)),− (− = <0.5 relative activity over Rd2BB (SEQ ID NO: 10)),− (− = <0.5 relative activity over Rd2BB (SEQ ID NO: 10))
B14,,,,++ (++ = 1.5 to 2.5 relative activity over Rd2BB (SEQ ID NO: 10)),++ (++ = 1.5 to 2.5 relative activity over Rd2BB (SEQ ID NO: 10)),++ (++ = 1.5 to 2.5 relative activity over Rd2BB (SEQ ID NO: 10))
